Assay results published in paper PMC5987255 (Molecular cell, 2018).

B1: mouse core RAG2 (aa 1-359) (domain or fragment, UniProt P21784 1-359, looked up)
chain: MSLQMVTVGHNIALIQPGFSLMNFDGQVFFFGQKGWPKRSCPTGVFHFDIKQNHLKLKPAIFSKDSCYLPPLRYPATCSYKGSIDSDKHQYIIHGGKTPNNELSDKIYIMSVACKNNKKVTFRCTEKDLVGDVPEPRYGHSIDVVYSRGKSMGVLFGGRSYMPSTQRTTEKWNSVADCLPHVFLIDFEFGCATSYILPELQDGLSFHVSIARNDTVYILGGHSLASNIRPANLYRIRVDLPLGTPAVNCTVLPGGISVSSAILTQTNNDEFVIVGGYQLENQKRMVCSLVSLGDNTIEISEMETPDWTSDIKHSKIWFGSNMGNGTIFLGIPGDNKQAMSEAFYFYTLRCSEEDLSEDQ
B2: mouse core RAG1 (aa 384-1008), E962Q mutant (domain or fragment, UniProt P15919 384-1008, looked up)
chain: VHINKGGRPRQHLLSLTRRAQKHRLRELKIQVKEFADKEEGGDVKAVCLTLFLLALRARNEHRQADELEAIMQGRGSGLQPAVCLAIRVNTFLSCSQYHKMYRTVKAITGRQIFQPLHALRNAEKVLLPGYHPFEWQPPLKNVSSRTDVGIIDGLSGLASSVDEYPVDTIAKRFRYDSALVSALMDMEEDILEGMRSQDLDDYLNGPFTVVVKESCDGMGDVSEKHGSGPAVPEKAVRFSFTVMRITIEHGSQNVKVFEEPKPNSELCCKPLCLMLADESDHETLTAILSPLIAEREAMKSSELTLEMGGIPRTFKFIFRGTGYDEKLVREVEGLEASGSVYICTLCDTTRLEASQNLVFHSITRSHAENLQRYEVWRSNPYHESVEELRDRVKGVSAKPFIETVPSIDALHCDIGNAAEFYKIFQLEIGEVYKHPNASKEERKRWQATLDKHLRKRMNLKPIMRMNGNFARKLMTQETVDAVCELIPSEERHEALRELMDLYLKMKPVWRSSCPAKECPESLCQYSFNSQRFAELLSTKFKYRYEGKITNYFHKTLAHVPEIIERDGSIGAWASEGNQSGNKLFRRFRKMNARQSKCYEMEDVLKHHWLYTSKYLQKFMNAHNA

Assays:
[1] = biological target: B2; assay: crystal structure
[2] = biological target: the molecule itself; assay: crystal structure

Row | binding result [1] | Binder | binding result [2]
1 | binds | B1 | 
2 |  | B2 | binds
